Assay results as given in patent US20150197542A1 (SAMSUNG ELECTRONICS, published 2015).

Target: T1, human c-Met/Fc fusion protein (R&D Systems) (human, UniProt P08581 25-932)
T1 construct: Bought reagent; also called human c-Met/Fc protein; not shown: Fc part of the bought fusion
Experiment: ELISA, human c-Met/Fc fusion protein coated at 2 µg/mL, hybridoma culture, anti-mouse IgG-HRP
Experimental: Human c-Met/Fc fusion protein was seeded in an amount of 50 μL (2 μg/mL)/well to microtiter plates and allowed to adhere to the surface of each well. The antibody that remained unbound was removed by washing.
The hybridoma cell culture obtained in Reference Example 1.1.2 was added in an amount of 50 μL to each well of the plates and incubated for 1 hour. The cells remaining unreacted were washed out with a sufficient amount of Tris-buffered saline and Tween 20 (TBST). Goat anti-mouse IgG-horseradish peroxidase (HRP) was added to the plates and incubated for 1 hour at room temperature. The plates were washed with a sufficient amount of TBST, followed by reacting the peroxidase with a substrate (OPD). Absorbance at 450 nm was measured on an ELISA reader.

T1 sequence (P08581 25-932 limits assumed): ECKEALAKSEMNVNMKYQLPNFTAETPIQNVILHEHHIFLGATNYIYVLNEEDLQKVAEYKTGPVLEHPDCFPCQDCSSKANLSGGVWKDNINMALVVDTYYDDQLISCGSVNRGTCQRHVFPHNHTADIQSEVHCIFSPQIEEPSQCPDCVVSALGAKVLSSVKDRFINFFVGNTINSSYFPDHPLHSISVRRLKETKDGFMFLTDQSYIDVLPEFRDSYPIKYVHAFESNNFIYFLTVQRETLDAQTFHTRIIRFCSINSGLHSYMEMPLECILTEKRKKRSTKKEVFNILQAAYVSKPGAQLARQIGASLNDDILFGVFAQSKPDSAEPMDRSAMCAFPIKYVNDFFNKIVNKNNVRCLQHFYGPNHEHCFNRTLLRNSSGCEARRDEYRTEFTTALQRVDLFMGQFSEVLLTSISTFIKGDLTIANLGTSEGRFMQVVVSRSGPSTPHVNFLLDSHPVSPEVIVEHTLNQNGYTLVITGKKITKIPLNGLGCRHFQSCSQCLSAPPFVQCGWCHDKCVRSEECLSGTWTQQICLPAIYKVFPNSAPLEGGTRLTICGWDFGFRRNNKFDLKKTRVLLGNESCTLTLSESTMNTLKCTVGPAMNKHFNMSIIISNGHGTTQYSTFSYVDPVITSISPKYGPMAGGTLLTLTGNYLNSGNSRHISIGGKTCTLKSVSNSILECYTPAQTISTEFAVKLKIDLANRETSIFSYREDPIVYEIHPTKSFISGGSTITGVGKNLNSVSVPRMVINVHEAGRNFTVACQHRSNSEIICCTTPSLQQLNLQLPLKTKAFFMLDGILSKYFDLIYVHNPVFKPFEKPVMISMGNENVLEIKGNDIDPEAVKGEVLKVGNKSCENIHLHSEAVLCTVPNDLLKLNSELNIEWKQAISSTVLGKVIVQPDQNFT

B1: AbF46, mouse monoclonal antibody to c-Met (hybridoma KCLRF-BP-00220) (antibody, V domains shown)
VH: EVKLVESGGGLVQPGGSLRLSCATSGFTFTDYYMSWVRQPPGKALEWLGFIRNKANGYTTEYSASVKGRFTISRDNSQSILYLQMDTLRAEDSATYYCARDNWFAYWGQGTLVTVSA
VL: DILMTQSPSSLTVSAGEKVTMSCKSSQSLLASGNQNNYLAWHQQKPGRSPKMLIIWASTRVSGVPDRFIGSGSGTDFTLTINSVQAEDLAVYYCQQSYSAPLTFGAGTKLELK
notes: Tested as hybridoma culture supernatant in the screening ELISA; also called mouse antibody AbF46
  binding result: binds
